Experimental data as given in patent US20110300138A1 (published 2011).

What was measured:
[1] = target: T1, human TSH receptor (full length), coated on tubes (human, UniProt P16473 22-764); assay: inhibition of 125I-K1-70 Fab (competitor) binding to TSHR coated tubes; 10 µg/mL in HBD serum pool
T1 construct: TSHR coated tubes as described in WO2004/050708A2; The receptor is full length and held on plastic tubes through a mouse MAb to the TSHR; also called thyroid stimulating hormone receptor
Method: (§1) Binding inhibition assays were carried out using TSHR coated tubes as described in WO2004/050708A2. […] After aspiration, the tubes were washed and 100 μL of ¹²⁵I-labelled protein (5×10⁴ cpm) added and incubated for 1 hour at room temperature with shaking. The tubes were then aspirated, washed and counted in a gamma counter. Inhibition of labelled protein binding was calculated as 100×[1−(cpm bound in the presence of test material/cpm bound in the presence of control material)].

[2] = target: T1, human TSH receptor (full length), …; assay: inhibition of 125I-K1-70 Fab (competitor) binding to TSHR coated tubes; 0.003 µg/mL in HBD serum pool
Method: as §1

[3] = target: T1, human TSH receptor (full length), …; assay: inhibition of 125I-K1-70 Fab (competitor) binding to TSHR coated tubes; 3 µg/mL in assay buffer
Method: as §1

[4] = target: T1, human TSH receptor (full length), …; assay: inhibition of 125I-K1-70 Fab (competitor) binding to TSHR coated tubes; 0.1 µg/mL in HBD serum pool
Method: as §1

[5] = target: T1, human TSH receptor (full length), …; assay: inhibition of 125I-K1-70 Fab (competitor) binding to TSHR coated tubes; 0.3 µg/mL in HBD serum pool
Method: as §1

[6] = target: T1, human TSH receptor (full length), …; assay: inhibition of 125I-K1-70 Fab (competitor) binding to TSHR coated tubes; 1 µg/mL in HBD serum pool
Method: as §1

[7] = target: T1, human TSH receptor (full length), …; assay: inhibition of 125I-K1-70 Fab (competitor) binding to TSHR coated tubes; 100 µg/mL in assay buffer
Method: as §1

[8] = target: T1, human TSH receptor (full length), …; assay: inhibition of 125I-K1-70 Fab (competitor) binding to TSHR coated tubes; 0.001 µg/mL in HBD serum pool
Method: as §1

[9] = target: T1, human TSH receptor (full length), …; assay: inhibition of 125I-K1-70 Fab (competitor) binding to TSHR coated tubes; 0.01 µg/mL in assay buffer
Method: as §1

[10] = target: T1, human TSH receptor (full length), …; assay: inhibition of 125I-K1-70 Fab (competitor) binding to TSHR coated tubes; 0.3 µg/mL in assay buffer
Method: as §1

[11] = target: T1, human TSH receptor (full length), …; assay: inhibition of 125I-K1-70 Fab (competitor) binding to TSHR coated tubes; 1 µg/mL in assay buffer
Method: as §1

[12] = target: T1, human TSH receptor (full length), …; assay: inhibition of 125I-K1-70 Fab (competitor) binding to TSHR coated tubes; 3 µg/mL in HBD serum pool
Method: as §1

[13] = target: T1, human TSH receptor (full length), …; assay: inhibition of 125I-K1-70 Fab (competitor) binding to TSHR coated tubes; 0.1 µg/mL in assay buffer
Method: as §1

[14] = target: T1, human TSH receptor (full length), …; assay: inhibition of 125I-K1-70 Fab (competitor) binding to TSHR coated tubes; 0.03 µg/mL in HBD serum pool
Method: as §1

[15] = target: T1, human TSH receptor (full length), …; assay: inhibition of 125I-K1-70 Fab (competitor) binding to TSHR coated tubes; 0.01 µg/mL in HBD serum pool
Method: as §1

[16] = target: T1, human TSH receptor (full length), …; assay: inhibition of 125I-K1-70 Fab (competitor) binding to TSHR coated tubes; 10 µg/mL in assay buffer
Method: as §1

[17] = target: T1, human TSH receptor (full length), …; assay: inhibition of 125I-K1-70 Fab (competitor) binding to TSHR coated tubes; 30 µg/mL in HBD serum pool
Method: as §1

[18] = target: T1, human TSH receptor (full length), …; assay: inhibition of 125I-K1-70 Fab (competitor) binding to TSHR coated tubes; 0.003 µg/mL in assay buffer
Method: as §1

[19] = target: T1, human TSH receptor (full length), …; assay: inhibition of 125I-K1-70 Fab (competitor) binding to TSHR coated tubes; 30 µg/mL in assay buffer
Method: as §1

[20] = target: T1, human TSH receptor (full length), …; assay: inhibition of 125I-K1-70 Fab (competitor) binding to TSHR coated tubes; 100 µg/mL in HBD serum pool
Method: as §1

[21] = target: T1, human TSH receptor (full length), …; assay: inhibition of 125I-K1-70 Fab (competitor) binding to TSHR coated tubes; 0.03 µg/mL in assay buffer
Method: as §1

[22] = target: T1, human TSH receptor (full length), …; assay: inhibition of 125I-K1-70 Fab (competitor) binding to TSHR coated tubes; 0.001 µg/mL in assay buffer
Method: as §1

Inhibition of binding (%) [1] [%] | Inhibition of binding (%) [2] [%] | Inhibition of binding (%) [3] [%] | Inhibition of binding (%) [4] [%] | Inhibition of binding (%) [5] [%] | Inhibition of binding (%) [6] [%] | Inhibition of binding (%) [7] [%] | Inhibition of binding (%) [8] [%] | Inhibition of binding (%) [9] [%] | Inhibition of binding (%) [10] [%] | Inhibition of binding (%) [11] [%] | Inhibition of binding (%) [12] [%] | Inhibition of binding (%) [13] [%] | Inhibition of binding (%) [14] [%] | Inhibition of binding (%) [15] [%] | Inhibition of binding (%) [16] [%] | Inhibition of binding (%) [17] [%] | Inhibition of binding (%) [18] [%] | Inhibition of binding (%) [19] [%] | Inhibition of binding (%) [20] [%] | Binder | other results
96.6 | -0.8 | 95.5 | 66.5 | 97 | 94.1 | 97.7 | -8.8 | 66.2 | 94.2 | 95.2 | 96.2 | 93.5 | 37.8 | 10.6 | 96.9 | 97.4 | 27.7 | 97.7 | 97.7 | K1-70 IgG (antibody, V domains shown, Human IgG1 lambda purified from hetero-hybridoma supernatant; also called human monoclonal autoantibody to the TSHR with TSH antagonist activity) VH: EVQLVQSGAEVKKPGQSLKISCKASGYSLTDNWIGWVRQKPGKGLEWMGIIYPGDSDTRYSPSFQGQVTISADKSINTAYLQWSSLKASDTAIYYCVGLDWNYNPLRYWGPGTLVTVSS VL: QSVLTQPPSVSAAPGQKVTISCSGSSSDIGSNYVSWYQQFPGTAPKLLIYDNNKRPSAIPDRFSGSKSGTSATLGITGLQTGDEADYYCGTWDSRLGIAVFGGGTQLTVLG | Inhibition of binding (%) [21]: 89%; Inhibition of binding (%) [22]: 5.5%
94.8 | 2.5 | 93.5 | 81.9 | 91.4 | 94.2 | 96.7 | -2.5 | 75.6 | 92.7 | 93.5 | 94.9 | 92.2 | 57.2 | 25.3 | 93.6 | 95.7 | 40 | 95.1 | 96.3 | K1-70 Fab (Fab, V domains shown) VH: EVQLVQSGAEVKKPGQSLKISCKASGYSLTDNWIGWVRQKPGKGLEWMGIIYPGDSDTRYSPSFQGQVTISADKSINTAYLQWSSLKASDTAIYYCVGLDWNYNPLRYWGPGTLVTVSS VL: QSVLTQPPSVSAAPGQKVTISCSGSSSDIGSNYVSWYQQFPGTAPKLLIYDNNKRPSAIPDRFSGSKSGTSATLGITGLQTGDEADYYCGTWDSRLGIAVFGGGTQLTVLG | Inhibition of binding (%) [21]: 89%; Inhibition of binding (%) [22]: 11.9%

Further lines, the binder ahead of its results:

Binder | Inhibition of binding (%) [1] [%] | Inhibition of binding (%) [2] [%] | Inhibition of binding (%) [3] [%] | Inhibition of binding (%) [4] [%] | Inhibition of binding (%) [5] [%] | Inhibition of binding (%) [6] [%] | Inhibition of binding (%) [7] [%] | Inhibition of binding (%) [8] [%] | Inhibition of binding (%) [9] [%] | Inhibition of binding (%) [10] [%] | Inhibition of binding (%) [11] [%] | Inhibition of binding (%) [12] [%] | Inhibition of binding (%) [13] [%] | Inhibition of binding (%) [14] [%] | Inhibition of binding (%) [15] [%] | Inhibition of binding (%) [16] [%] | Inhibition of binding (%) [17] [%] | Inhibition of binding (%) [18] [%] | Inhibition of binding (%) [19] [%] | Inhibition of binding (%) [20] [%] | other results
K1-18 IgG (antibody, V domains shown, Human IgG1 kappa purified from hetero-hybridoma supernatant; also called human monoclonal autoantibody to the TSHR with TSH agonist activity) VH: EVQLVQSGAEVKKPGESLKISCKGSGYSFTNYWIGWVRQMPGKGLEWMGIIYPYDSDTRYSPSFEGQVTISADKSIRTAYLHWSSLKASDTAMYYCVRPRDGSYPYDAFDIWGQGTMVTVSS VL: EIVLTQSPGTLSLSPGERATLSCRASQSVSNNYLAWYQQKPGQAPRLLIYGASSRATGIPDRFSGSGSGTDFTLTISRLEPEDFAVYYCQHCGSSLRAFGQGTKVEIKR | 94.8 | -9.4 | 93.3 | 51 | 77.7 | 89.4 | 95.3 | -6.8 | 30.3 | 92.6 | 93.1 | 93 | 83.6 | 17.2 | 2.2 | 94 | 95.6 | 11.4 | 94.5 | 96 | Inhibition of binding (%) [21]: 63.1%; Inhibition of binding (%) [22]: 5.9%
K1-18 Fab (Fab, V domains shown) VH: EVQLVQSGAEVKKPGESLKISCKGSGYSFTNYWIGWVRQMPGKGLEWMGIIYPYDSDTRYSPSFEGQVTISADKSIRTAYLHWSSLKASDTAMYYCVRPRDGSYPYDAFDIWGQGTMVTVSS VL: EIVLTQSPGTLSLSPGERATLSCRASQSVSNNYLAWYQQKPGQAPRLLIYGASSRATGIPDRFSGSGSGTDFTLTISRLEPEDFAVYYCQHCGSSLRAFGQGTKVEIKR | 83.2 | -9.6 | 80.6 | 36.9 | 63.9 | 78.7 | 86.4 | -8.2 | 16.7 | 75.9 | 79 | 82.6 | 62.9 | 7.9 | -0.8 | 80.8 | 85.4 | 5 | 83.2 | 85.7 | Inhibition of binding (%) [21]: 38.8%; Inhibition of binding (%) [22]: 3.8%
